Three substances from patent US7025971 can be followed below.

The target of assay [1] is PapD (wild type) (E. coli) (UniProt P15319). Nature of the assay: soluble inhibition ELISA: 25-fold molar excess of peptide, 100 pmol/well PapD, G1′-19′WT-coated wells.
Assay [2] shares this target. Nature of the assay: cell-based or functional assay.

PapD (wild type) (E. coli), sequence (P15319 22-239 limits assumed): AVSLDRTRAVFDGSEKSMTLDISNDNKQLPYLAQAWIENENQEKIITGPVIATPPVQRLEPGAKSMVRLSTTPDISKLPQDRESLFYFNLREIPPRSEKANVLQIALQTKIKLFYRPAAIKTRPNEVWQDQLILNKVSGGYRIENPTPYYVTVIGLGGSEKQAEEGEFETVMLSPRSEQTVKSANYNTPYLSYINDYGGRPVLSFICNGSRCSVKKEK

As for G2′-21′amide (peptide), the % Inhibition in assay [1] was found to be 0%.

In assay [2], “MBP/G1′-81′ (from UniProt P0AEX9 27-392)” yielded an HA titer of 82 and a Piliation percentage of 40%.

In assay [2], “MBP/G1′-140′ (from UniProt P0AEX9 27-392)” returned an HA titer of 4, a Piliation percentage of 10% and a decrease of HA titer of 30 fold.
